Test [1] concerns the target T1, recombinant human IL-12 (rhIL-12) (human, UniProt P29459 23-219; P29460 23-328).
T1 sequence (looked up) 1: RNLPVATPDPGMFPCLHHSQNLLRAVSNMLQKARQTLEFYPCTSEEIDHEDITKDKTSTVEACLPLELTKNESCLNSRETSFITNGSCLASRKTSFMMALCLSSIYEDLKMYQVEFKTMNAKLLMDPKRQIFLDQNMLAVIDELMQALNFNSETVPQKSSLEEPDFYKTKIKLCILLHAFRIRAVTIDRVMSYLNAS
T1 sequence (looked up) 2: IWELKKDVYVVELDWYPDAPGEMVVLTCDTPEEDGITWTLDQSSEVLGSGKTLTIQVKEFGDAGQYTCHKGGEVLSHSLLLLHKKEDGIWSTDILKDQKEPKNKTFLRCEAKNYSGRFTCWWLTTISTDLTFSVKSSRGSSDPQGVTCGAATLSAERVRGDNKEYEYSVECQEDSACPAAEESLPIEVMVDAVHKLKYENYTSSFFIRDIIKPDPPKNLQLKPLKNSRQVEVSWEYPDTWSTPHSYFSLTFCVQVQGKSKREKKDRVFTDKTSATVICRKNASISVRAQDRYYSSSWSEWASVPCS
Briefly: cell-based or functional assay.

Test [2] deals with T1, recombinant human IL-12 (rhIL-12). Briefly: BIAcore (SPR) off-rate on IL-12 chip.
Source text: The system utilizes the optical properties of SPR to detect alterations in protein concentrations within a dextran biosensor matrix. Proteins are covalently bound to the dextran matrix at known concentrations. […] To determine the off rate (koff), on rate (kₒₙ), association rate (Ka) and dissociation rate (Kd) constants, BIAcore kinetic evaluation software (version 2.1) was used.
Test [3] has the same target. Briefly: cell-based or functional assay. The source holds these as a separate data set.
Test [4] concerns the target T2, recombinant human IL-12 (rhIL-12) (human, UniProt P29459 23-219; P29460 23-328).
T2 chain 1: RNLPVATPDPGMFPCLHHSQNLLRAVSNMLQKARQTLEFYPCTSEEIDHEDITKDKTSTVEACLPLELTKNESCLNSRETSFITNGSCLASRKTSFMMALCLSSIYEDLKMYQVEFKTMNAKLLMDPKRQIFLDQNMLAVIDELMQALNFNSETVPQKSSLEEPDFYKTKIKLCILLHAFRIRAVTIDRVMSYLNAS
T2 chain 2: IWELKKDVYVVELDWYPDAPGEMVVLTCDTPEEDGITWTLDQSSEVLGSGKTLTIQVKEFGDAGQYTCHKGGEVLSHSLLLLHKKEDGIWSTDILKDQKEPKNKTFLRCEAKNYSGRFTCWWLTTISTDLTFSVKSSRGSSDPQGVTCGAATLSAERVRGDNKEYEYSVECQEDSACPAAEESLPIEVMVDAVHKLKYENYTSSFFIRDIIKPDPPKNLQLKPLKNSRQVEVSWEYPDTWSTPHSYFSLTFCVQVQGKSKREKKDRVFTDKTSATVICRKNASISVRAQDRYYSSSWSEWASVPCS
Briefly: BIAcore. In general terms: In SPR one partner is held on a chip, and binding of the other changes the refractive index at the surface.

B1: Y61-L50Y-H31E IgG (antibody, V domains shown)
VH: QVQLVQSGGGVVQPGRSLRLSCAASGFTFSEYGMHWVRQAPGKGLEWVAFIRYDGSNKYYADSVKGRFTISRDNSKNTLYLQMKSLRAEDTAVYYCKTHGSHDNWGQGTMVTVSS
VL: SYVLTQPPSVSGTPGQRVTISCSGGRSWIGSNTVKWYQQLPGTAPKLLIYYNDQRPSGVPDRFSGSKSGTSASLAITGVQAEDEADYYCQSYDRGTHPALLFGTGTKVTVLG
As usually defined, the koff is a measure of how fast the partners let go of each other. As for B1, in test [1], the “IFN gamma IC50” value worked out at 0.02 nM and the “PHA assay IC50” value worked out at 0.06 nM. Besides, the koff in test [2] amounted to 2.99e-05 s⁻¹.

B2: 99-H4 (scFv, V domains shown)
VH: QVQLVQSGGGVVQPGRSLRLSCAASGFTFSSYGMHWVRQAPGKGLEWVAFIRYDGSNKYYADSVKGRFTISRDNSKNTLYLQMKSLRAEDTAVYYCKTHGSHDNWGQGTMVTVSS
VL: SYVLTQPPSVSGTPGQRVTISCSGGRSNIGSNTVKWYQQLPGTAPKLLIYGNDQRPSGVPDRFSGSKSGTSASLAITGVQAEDEADYYCQSYDSRFTGSRVFGTGTKVTVLG
On to B2, for which the koff in test [2] came to 0.0048 s⁻¹.

B3: 99-F6 (scFv, V domains shown)
VH: QVQLVQSGGGVVQPGRSLRLSCAASGFTFSSYGMHWVRQAPGKGLEWVAFIRYDGSNKYYADSVKGRFTISRDNSKNTLYLQMKSLRAEDTAVYYCKTHGSHDNWGQGTMVTVSS
VL: SYVLTQPPSVSGTPGQRVTISCSGGRSNIGSNTVKWYQQLPGTAPKLLIYGNDQRPSGVPDRFSGSKSGTSASLAITGVQAEDEADYYCQSYDSGSTGSRVFGTGTKVTVLG
Consider B3, for which the koff in test [2] amounted to 0.0049 s⁻¹.

B4: 99-H11 (scFv, V domains shown)
VH: QVQLVQSGGGVVQPGRSLRLSCAASGFTFSSYGMHWVRQAPGKGLEWVAFIRYDGSNKYYADSVKGRFTISRDNSKNTLYLQMKSLRAEDTAVYYCKTHGSHDNWGQGTMVTVSS
VL: SYVLTQPPSVSGTPGQRVTISCSGGRSNIGSNTVKWYQQLPGTAPKLLIYGNDQRPSGVPDRFSGSKSGTSASLAITGVQAEDEADYYCQSYSTHMPISRVFGTGTKVTVLG
As to B4, in test [2], the dissociation rate constant (koff) turned out to be 0.0049 s⁻¹.

B5: 99-F8 (scFv, V domains shown)
VH: QVQLVQSGGGVVQPGRSLRLSCAASGFTFSSYGMHWVRQAPGKGLEWVAFIRYDGSNKYYADSVKGRFTISRDNSKNTLYLQMKSLRAEDTAVYYCKTHGSHDNWGQGTMVTVSS
VL: SYVLTQPPSVSGTPGQRVTISCSGGRSNIGSNTVKWYQQLPGTAPKLLIYGNDQRPSGVPDRFSGSKSGTSASLAITGVQAEDEADYYCQSYIRAPQQVFGTGTKVTVLG
Turning to B5, the koff in test [2] is 0.0037 s⁻¹.

B6: 99-H7 (scFv, V domains shown)
VH: QVQLVQSGGGVVQPGRSLRLSCAASGFTFSSYGMHWVRQAPGKGLEWVAFIRYDGSNKYYADSVKGRFTISRDNSKNTLYLQMKSLRAEDTAVYYCKTHGSHDNWGQGTMVTVSS
VL: SYVLTQPPSVSGTPGQRVTISCSGGRSNIGSNTVKWYQQLPGTAPKLLIYGNDQRPSGVPDRFSGSKSGTSASLAITGVQAEDEADYYCQSYPDGTPASRVFGTGTKVTVLG
As for B6, in test [2], the koff came to 0.0033 s⁻¹.

B7: 149-5 (scFv, V domains shown)
VH: QVQLVQSGGGVVQPGRSLRLSCAASGFTFSSYGMHWVRQAPGKGLEWVAFIRYDGSNKYYADSVKGRFTISRDNSKNTLYLQMKSLRAEDTAVYYCTTHGSHDTWGQGTMVTVSS
VL: SYVLTQPPSVSGTPGQRVTISCSGGRSNIGSNTVKWYQQLPGTAPKLLIYGNDQRPSGVPDRFSGSKSGTSASLAITGVQAEDEADYYCQSYDSSLWGTRVFGTGTKVTVLG
With B7, in test [3], the “PHA assay IC50 (M) p70:p40 1:0” value was found to be 6.5e-09 M, the “PHA assay IC50 (M) p70:p40 1:20” value stood at 7e-09 M and the “PHA assay IC50 (M) p70:p40 1:50” value turned out to be 4e-09 M.

B8: 149-6 (scFv, V domains shown)
VH: QVQLVQSGGGVVQPGRSLRLSCAASGFTFSSYGMHWVRQAPGKGLEWVAFIRYDGSNKYYADSVKGRFTISRDNSKNTLYLQMKSLRAEDTAVYYCTTHGSHDNWGQGTMVTVSS
VL: SYVLTQPPSVSGTPGQRVTISCSGGRSNIVSNTVKWYQQLPGTAPKLLIYGNDQRPSGVPDRFSGSKSGTSASLAITGVQAEDEADYYCQSYDRGFTGSRVFGTGTKVTVLG
For B8, in test [3], the “PHA assay IC50 (M) p70:p40 1:0” value was found to be 9e-10 M, the “PHA assay IC50 (M) p70:p40 1:20” value is 1e-09 M and the “PHA assay IC50 (M) p70:p40 1:50” value worked out at 1e-09 M.

B9: 99-F7 (scFv, V domains shown)
VH: QVQLVQSGGGVVQPGRSLRLSCAASGFTFSSYGMHWVRQAPGKGLEWVAFIRYDGSNKYYADSVKGRFTISRDNSKNTLYLQMKSLRAEDTAVYYCKTHGSHDNWGQGTMVTVSS
VL: SYVLTQPPSVSGTPGQRVTISCSGGRSNIGSNTVKWYQQLPGTAPKLLIYGNDQRPSGVPDRFSGSKSGTSASLAITGVQAEDEADYYCQSYPNSYPISRVFGTGTKVTVLG
In the case of B9, the koff in test [2] came to 0.0048 s⁻¹.

B10: 136-15 (scFv, V domains shown)
VH: QVQLVQSGGGVVQPGRSLRLSCAASGFTFSSYGMHWVRQAPGKGLEWVAFIRYDGSNKYYADSVKGRFTISRDNSKNTLYLQMKSLRAEDTAVYYCKTHGSHDNWGQGTMVTVSS
VL: SYVLTQPPSVSGTPGQRVTISCSGSRSNIGSNTVKWYQQLPGTAPKLLIYGNDQRPSGVPDRFSGSKSGTSASLAITGVQAEDEADYYCQTYDKGFTGSSVFGTGTKVTVLG
B10: in test [3], the “PHA assay IC50 (M) p70:p40 1:20” value was determined as 5e-09 M and the “PHA assay IC50 (M) p70:p40 1:50” value amounted to 4e-09 M.

B11: Y61-L50Y-H31E-L94Y IgG (antibody, V domains shown)
VH: QVQLVQSGGGVVQPGRSLRLSCAASGFTFSEYGMHWVRQAPGKGLEWVAFIRYDGSNKYYADSVKGRFTISRDNSKNTLYLQMKSLRAEDTAVYYCKTHGSHDNWGQGTMVTVSS
VL: SYVLTQPPSVSGTPGQRVTISCSGGRSNIGSNTVKWYQQLPGTAPKLLIYYNDQRPSGVPDRFSGSKSGTSASLAITGVQAEDEADYYCQSYDRYTHPALLFGTGTKVTVLG
For the molecule B11, in test [1], the “IFN gamma IC50” value came to 0.01 nM and the “PHA assay IC50” value was 0.01 nM. Moreover, in test [2], the koff turned out to be 4.64e-05 s⁻¹. For the molecule HGSHDF [Y61 H102 F], the off-rate (koff) in test [4] was 0.000318 s⁻¹. Consider HGSHDR [Y61 H102 R], for which, in test [4], the koff was determined as 0.000575 s⁻¹. With HGSHAN [Y61 H101 A], in test [4], the koff amounted to 0.00106 s⁻¹. With HGSHDT [Y61 H102 T], the koff in test [4] worked out at 0.000333 s⁻¹.

Regarding HGSHDP [Y61 H102 P], the koff in test [4] turned out to be 0.00181 s⁻¹.

HGSHDL [Y61 H102 L]: the koff in test [4] is 0.000956 s⁻¹. Still for that read-out and setting: the same measure for HGSHVN [Y61 H101 V]: 0.00163 s⁻¹; for HGSHIN [Y61 H101 I]: 0.00162 s⁻¹; for HGSHDI [Y61 H102 I]: 0.000996 s⁻¹. The same measure, in the same setting: the same measure for HGSHNN [Y61 H101 N]: 0.00223 s⁻¹; for HGSHDG [Y61 H102 G]: 0.000692 s⁻¹.
